Test results taken from paper PMC11827635 (Science Advances, 2025).

B1: αE-catenin α(CA), as it stands in the tetramer and pentamer (natural protein, mouse, UniProt P26231 1-906, looked up)
chain: MTAVHAGNINFKWDPKSLEIRTLAVERLLEPLVTQVTTLVNTNSKGPSNKKRGRSKKAHVLAASVEQATENFLEKGDKIAKESQFLKEELVVAVEDVRKQGDLMKSAAGEFADDPCSSVKRGNMVRAARALLSAVTRLLILADMADVYKLLVQLKVVEDGILKLRNAGNEQDLGIQYKALKPEVDKLNIMAAKRQQELKDVGNRDQMAAARGILQKNVPILYTASQACLQHPDVAAYKANRDLIYKQLQQAVTGISNAAQATASDDAAQHQGGSGGELAYALNNFDKQIIVDPLSFSEERFRPSLEERLESIISGAALGADSSCTEDDRRERIVAECNAVRQALQDLLSEYMGNAGRKERSDALNSAIDKMTKKTRDLRRQLRKAVMDHVSDSFLETNVPLLVLIEAAKNGNEKEVKEYAQVFREHANKLIEVANLACSISNNEEGVKLVRMSASQLEALCPQVINAALALAAKPQSKLAQENMDLFKEQWEKQVRVLTDAVDDITSIDDFLAVSENHILEDVNKCVIALQEKDVDGLDRTAGAIRGRAAEVIHVVTSEMDNYEPGVYTEKVLEATKLLSNTVMPRFTEQVEAAVEALSSDPAQPMDENEFIDASRLVYDGIRDIRKAVLMIRTPEELDDSDFETEDFDVRSRTSVQTEDDQLIAGQSARAIMAQLPQEQKAKIAEQVASFQEEKSKLDAEVSKWDDSGNDIIVLAKQMCMIMMEMTDFTRGKGPLKNTSDVISAAKKIAEAGSRMDKLGRTIADHCPDSACKQDLLAYLQRIALYCHQLNICSKVKAEVQNLGGELVVSGVDSAMSLIQAAKNLMNAVVQTVKASYVASTKYQKSQGMASLNLPAVSWKMKAPEKKPLVKREKQDETQTKIKRASQKKHVNPVQALSEFKAMDSI
notes: αE-catenin, α(CA); residues 690 to 903 are modelled in PDB 9DVA; single chain of m5, m6, m11 and m18, written for the pairs that touch; also called αE-catenin ABD (in the structure); ABD1; source: FreeStyle 293-F, co-expressed and purified within the cadherin-catenin–vinculin complex
B2: afadin coiled-coil region (afadin-CC) (domain or fragment, mouse, UniProt Q9QZQ1-3 1393-1602, looked up)
chain: ANQAGPQSAQVAAAEWKKREEHQRWYEKEKARLEEERERKRREQERKLGQMRSQTLNPASFSPLATQAKPEKPSTLQRPQETVIRELQPQQQPRTIERKDLQYITISKEELSSGDSLSPDPWKRDAREKLEKQQQMHIVDMLSKEIHELQNKVDRTAEESDRLRKLMLEWQFQKRLQESKQKDEDDDEEEDDDVDTMLIMQRLEAERRAR
notes: afadin, coiled-coil region (afadin-CC); residues 1508 to 1578 are modelled in PDB 9DVA; also called afadin-CC domain; source: FreeStyle 293-F, purified (anti-GFP beads, TEV, MonoQ, Superdex 200); not shown: GFP, N-terminal, cleaved

Legend:
[1] = biological target: the molecule itself; assay: cryo-EM structure; 2.5 μM tetramer premixed with 5 μM afadin-CC, added to 0.6 μM F-actin on the grid; straight filaments 3.1 Å, curved filaments decorated along one strand 4.1 Å
[2] = biological target: B1; assay: as above; details: both partners purified

Row | binding result [2] | Binder | binding result [1]
1 | – | B1 | binds
2 | binds | B2 | –
